Results published in KR20230010676A (dated 2023).

How the values were obtained:
Experiment in all cases: cell-based or functional assay
SARS-CoV-2 S N439K = SARS-CoV-2 S N439K (SARS-CoV-2, UniProt P0DTC2 14-1273)
SARS-CoV-2 S N501Y = SARS-CoV-2 S N501Y (SARS-CoV-2, UniProt P0DTC2 14-1273)
SARS-CoV-2 S S477N = SARS-CoV-2 S S477N (SARS-CoV-2, UniProt P0DTC2 14-1273)
SARS-CoV-2 S L452R = SARS-CoV-2 S L452R (SARS-CoV-2, UniProt P0DTC2 14-1273)
SARS-CoV-2 S Y453F = SARS-CoV-2 S Y453F (SARS-CoV-2, UniProt P0DTC2 14-1273)
SARS-CoV-2 S K417N = SARS-CoV-2 S K417N (SARS-CoV-2, UniProt P0DTC2 14-1273)
SARS-CoV-2 S S494P = SARS-CoV-2 S S494P (SARS-CoV-2, UniProt P0DTC2 14-1273)
SARS-CoV-2 S T478K = SARS-CoV-2 S T478K (SARS-CoV-2, UniProt P0DTC2 14-1273)
SARS-CoV-2 S E484K = SARS-CoV-2 S E484K (SARS-CoV-2, UniProt P0DTC2 14-1273)
SARS-CoV-2 S A520S = SARS-CoV-2 S A520S (SARS-CoV-2, UniProt P0DTC2 14-1273)
SARS-CoV-2 S A522S = SARS-CoV-2 S A522S (SARS-CoV-2, UniProt P0DTC2 14-1273)
SARS-CoV-2 S N501T = SARS-CoV-2 S N501T (SARS-CoV-2, UniProt P0DTC2 14-1273)
SARS-CoV-2 S P384L = SARS-CoV-2 S P384L (SARS-CoV-2, UniProt P0DTC2 14-1273)

Measured: S2E12의 중화 감소 (배)

B1: S2E12 (antibody, V domains shown)
VH: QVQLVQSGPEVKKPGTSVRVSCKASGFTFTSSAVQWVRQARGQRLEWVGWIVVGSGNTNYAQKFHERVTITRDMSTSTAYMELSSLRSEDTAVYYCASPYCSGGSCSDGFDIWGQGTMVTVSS
VL: DIVLTQTPGTLSLSPGERATLSCRASQSVSSSYLAWYQQKPGQAPRLLIYGASSRATGIPDRFSGSGSGTDFTLTISRLEPEDFAVYYCQQYVGLTGWTFGQGTKVEIK
notes: also called S2E12 WT; S2E12 wt
< 3 배: all assays above
